From publication PMC8406262

Experiments:
[1] = molecular target: BonA, endogenous in A. baumannii ATCC 19606 membranes (Acinetobacter baumannii ATCC 19606 (endogenous)); assay: native gel or EMSA; 5 to 16% blue-native PAGE of 50 μg total membranes solubilized in detergent, Western blot with anti-BonA antiserum
[2] = molecular target: BonA, full-length soluble recombinant protein (mature, lacking its signal sequence) (Acinetobacter baumannii); assay: AUC; sedimentation velocity, 0.25 to 2 mg/ml, 40,000 rpm, 20°C, 50 mM Tris-200 mM NaCl pH 7.9
[3] = molecular target: BonA, full-length soluble recombinant protein (mature, lacking its signal sequence) (Acinetobacter baumannii); assay: SEC-MALS; 100 μl at 1 to 5 mg/ml on Superdex 200 10/300 GL, 20 mM Tris-200 mM NaCl pH 7.9
[4] = molecular target: BonA-C45, 45-aa C-terminally truncated BonA (Acinetobacter baumannii); assay: as above

Substance: BonA, endogenous in A. baumannii ATCC 19606 membranes (natural protein)
- stoichiometry N [1]: 2

Substance: BonA, full-length soluble recombinant protein (mature, lacking its signal sequence) (natural protein)
- stoichiometry N [2]: 10
- stoichiometry N [3]: 10

Substance: BonA-C45, 45-aa C-terminally truncated BonA (domain or fragment)
- stoichiometry N [4]: 10
